The target of the data set is T1, Rrp41 D182A (catalytically inactive);Rrp42 (Sulfolobus solfataricus;Sulfolobus …, UniProt Q9UXC2;Q9UXC0 ;, D182A|).
T1 sequence 1: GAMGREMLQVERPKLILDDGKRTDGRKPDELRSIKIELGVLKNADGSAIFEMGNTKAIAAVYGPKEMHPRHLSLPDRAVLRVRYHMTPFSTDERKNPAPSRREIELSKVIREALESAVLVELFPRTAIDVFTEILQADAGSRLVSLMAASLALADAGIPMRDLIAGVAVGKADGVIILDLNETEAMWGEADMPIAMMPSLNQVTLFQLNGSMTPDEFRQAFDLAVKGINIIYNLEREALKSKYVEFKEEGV
T1 sequence 2: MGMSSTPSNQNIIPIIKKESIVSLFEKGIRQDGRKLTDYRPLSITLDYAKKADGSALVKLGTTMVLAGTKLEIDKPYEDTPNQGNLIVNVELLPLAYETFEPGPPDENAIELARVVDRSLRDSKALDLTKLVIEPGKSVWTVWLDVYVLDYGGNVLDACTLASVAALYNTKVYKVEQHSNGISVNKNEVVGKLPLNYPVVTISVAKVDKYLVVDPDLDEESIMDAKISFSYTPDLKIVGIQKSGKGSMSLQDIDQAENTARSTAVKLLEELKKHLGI
The data set can be described thus: fluorescence anisotropy.

B1: fluorescent 32A (FA RNA) (structured_RNA)
RNA: GCCCCCCCCGAAAGGGGGGGGAAAAAAAAAAAAAAAAAAAAAUAAAAAAAAAAAGCU
modifications: 4-thiouridine at position 43
Usually Kd stands for a measure of binding affinity in units of concentration. Molecule B1 displayed a Kd of 11.7 ± 0.9 nM.
